Experimental findings from US20220387586A1 (Hoffmann-La Roche, published 2022) are described below.

By EC50 (read off the curve) is commonly meant the concentration needed to bring the measured effect to its halfway point. A low value points to greater potency. The EC50 is the concentration at which the effect is half-maximal. The term IC50 denotes the concentration that gives 50% inhibition.

In assay [1] the target is T1, LAG3 on PD1+LAG3+ human U2OS cells (Homo sapiens (Human), UniProt P18627 23-525).
T1 construct: also called cellular LAG3 (dimerization assay); not shown: subunit of the reporter enzyme fused to the cytosolic C-terminus
T1 sequence: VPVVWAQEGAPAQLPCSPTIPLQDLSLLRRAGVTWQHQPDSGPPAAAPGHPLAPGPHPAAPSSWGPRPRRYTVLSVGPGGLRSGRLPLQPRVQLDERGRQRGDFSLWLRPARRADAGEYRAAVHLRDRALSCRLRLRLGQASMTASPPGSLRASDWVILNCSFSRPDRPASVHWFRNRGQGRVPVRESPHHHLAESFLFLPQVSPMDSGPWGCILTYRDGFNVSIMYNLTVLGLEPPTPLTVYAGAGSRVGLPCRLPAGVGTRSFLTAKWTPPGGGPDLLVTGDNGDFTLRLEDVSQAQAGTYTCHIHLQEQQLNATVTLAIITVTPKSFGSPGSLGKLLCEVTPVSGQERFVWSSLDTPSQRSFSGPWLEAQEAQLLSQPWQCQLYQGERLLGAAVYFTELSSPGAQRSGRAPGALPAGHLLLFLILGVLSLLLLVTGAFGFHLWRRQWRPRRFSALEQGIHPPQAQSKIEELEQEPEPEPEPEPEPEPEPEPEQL
Nature of the assay: cellular PD1/LAG3 dimerization assay on PD1+LAG3+ U2OS cells, chemoluminescence; the signal needs PD1 and LAG3 bound at once. On the procedure: For this specific interaction, the cytosolic C-terminal ends of both receptors were individually fused to heterologous subunits of a reporter enzyme.
On the next day cell medium was discarded and replaced by fresh medium. Antibody or ligand dilutions were prepared and titrated amounts of indicated (bispecific) antibodies were added and incubated at 37° C. for 2 hours. Next, a substrate/buffer mix (e.g. PathHunterFlash detection reagent) was added and again incubated for 1h. For measuring chemoluminescence induced upon simultaneous binding and dimerization a Tecan infinite reader was used.

Assay [2] deals with T2, recombinant Human LAG-3 Fc Chimera Protein (R&D Systems, 2319-L3) (human, UniProt P18627 29-450).
T2 construct: Bought protein; also called huLAG3; not shown: Fc part of the chimera
T2 sequence: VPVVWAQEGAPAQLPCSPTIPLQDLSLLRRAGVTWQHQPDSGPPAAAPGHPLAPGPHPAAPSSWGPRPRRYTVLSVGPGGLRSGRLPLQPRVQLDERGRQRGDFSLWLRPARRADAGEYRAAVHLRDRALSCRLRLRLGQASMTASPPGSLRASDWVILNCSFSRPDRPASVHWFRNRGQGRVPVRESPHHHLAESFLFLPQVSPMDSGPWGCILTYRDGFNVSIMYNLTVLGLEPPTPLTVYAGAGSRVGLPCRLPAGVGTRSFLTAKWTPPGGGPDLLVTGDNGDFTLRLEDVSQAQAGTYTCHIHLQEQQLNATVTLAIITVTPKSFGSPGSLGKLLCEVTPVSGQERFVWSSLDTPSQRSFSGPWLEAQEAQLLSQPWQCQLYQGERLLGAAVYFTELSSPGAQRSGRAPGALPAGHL
Nature of the assay: ELISA on coated Human LAG-3 Fc Chimera (rel. EC50). An outline of the steps:
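Wells blocked 1 h at RT in PBS + 2% BSA + 0.05% Tween 20; bound antibody detected with goat anti-human Ig κ-HRP (1:2000, 1 h RT), then TMB substrate for 2-10 min. Absorbance read at 370/492 nm.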
Background: An ELISA detects its analyte on a solid surface through an enzyme-linked reagent.

For assay [3], the target named is PD1 on PD1+LAG3+ human U2OS cells (UniProt Q15116 25-288). Nature of the assay: cell-based or functional assay.
In the next assay the target is T3, biotinylated-Lag3 (UniProt P18627 23-450, limits assumed, biotinylated).
T3 construct: Probably a human LAG3 ECD construct; also called Lag3 (MHCII/ELISA)
T3 sequence (looked up): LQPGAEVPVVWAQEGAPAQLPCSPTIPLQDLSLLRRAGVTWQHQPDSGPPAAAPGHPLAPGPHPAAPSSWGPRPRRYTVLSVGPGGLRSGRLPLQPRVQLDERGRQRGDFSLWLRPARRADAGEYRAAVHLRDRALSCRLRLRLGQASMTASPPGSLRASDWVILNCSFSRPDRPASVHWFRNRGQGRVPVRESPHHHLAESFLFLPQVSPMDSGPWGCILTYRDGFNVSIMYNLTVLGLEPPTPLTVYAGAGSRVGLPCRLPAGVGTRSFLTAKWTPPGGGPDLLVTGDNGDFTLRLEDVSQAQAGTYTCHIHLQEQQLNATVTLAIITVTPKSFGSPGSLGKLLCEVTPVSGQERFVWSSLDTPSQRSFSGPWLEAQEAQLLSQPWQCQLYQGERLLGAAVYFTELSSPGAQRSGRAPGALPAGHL
Nature of the assay: ELISA, inhibition of biotinylated-Lag3 binding to MHC-II on A375 cells (competitor MHC-II).

The target in assay [4] is T4, LAG3 on cells (recombinant CHO cells expressing Lag3) (human, UniProt P18627 29-525).
T4 construct: The cell ELISA paragraphs say only 'Lag3'; also called CHO-LAG3; Lag3 cells
T4 sequence: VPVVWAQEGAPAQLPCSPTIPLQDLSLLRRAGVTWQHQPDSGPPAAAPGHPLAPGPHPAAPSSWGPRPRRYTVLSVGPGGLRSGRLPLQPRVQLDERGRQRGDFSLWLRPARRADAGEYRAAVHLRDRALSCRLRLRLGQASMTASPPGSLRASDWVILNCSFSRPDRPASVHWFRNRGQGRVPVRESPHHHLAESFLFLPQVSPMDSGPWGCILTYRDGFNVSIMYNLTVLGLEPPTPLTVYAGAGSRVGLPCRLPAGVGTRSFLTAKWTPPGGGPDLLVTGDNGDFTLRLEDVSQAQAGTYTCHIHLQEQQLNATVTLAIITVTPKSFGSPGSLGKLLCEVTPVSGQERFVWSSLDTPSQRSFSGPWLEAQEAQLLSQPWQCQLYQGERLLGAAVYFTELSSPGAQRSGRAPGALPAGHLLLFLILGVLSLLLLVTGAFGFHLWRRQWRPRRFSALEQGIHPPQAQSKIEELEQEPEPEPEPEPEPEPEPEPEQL
The assay is described as follows: cell ELISA on recombinant CHO cells expressing Lag3 (rel. EC50).

Sequence of PD1 on PD1+LAG3+ human U2OS cells (Q15116 25-288): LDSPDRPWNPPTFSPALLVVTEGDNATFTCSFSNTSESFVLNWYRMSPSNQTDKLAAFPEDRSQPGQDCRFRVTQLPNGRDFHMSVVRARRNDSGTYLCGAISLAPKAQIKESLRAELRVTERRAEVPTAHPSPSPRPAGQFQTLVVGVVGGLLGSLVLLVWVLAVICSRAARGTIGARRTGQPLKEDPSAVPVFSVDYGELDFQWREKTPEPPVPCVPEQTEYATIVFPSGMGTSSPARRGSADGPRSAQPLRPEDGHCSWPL

B1: PD1/LAG3 0927 (bispecific antibody, human IgG1, kappa, L234A L235A)
heavy 1: not shown
heavy 2: EVQLLESGGGLVQPGGSLRLSCAASGFIFDDYTMNWVRQAPGKGLEWVAVISWDGGGTYYTDSVKGRFTISRDDFKNTLYLQMNSLRAEDTAVYYCAKGLTDTTLYGSDYWGQGTLVTVSSASTKGPSVFPLAPSSKSTSGGTAALGCLVEDYFPEPVTVSWNSGALTSGVHTFPAVLQSSGLYSLSSVVTVPSSSLGTQTYICNVNHKPSNTKVDEKVEPKSCDKTHTCPPCPAPEAAGGPSVFLFPPKPKDTLMISRTPEVTCVVVDVSHEDPEVKFNWYVDGVEVHNAKTKPREEQYNSTYRVVSVLTVLHQDWLNGKEYKCKVSNKALGAPIEKTISKAKGQPREPQVCTLPPSRDELTKNQVSLSCAVKGFYPSDIAVEWESNGQPENNYKTTPPVLDSDGSFFLVSKLTVDKSRWQQGNVFSCSVMHEALHNHYTQKSLSLSPGK
light 1: EVQLLESGGGLVQPGGSLRLSCAASGFSFSSYTMSWVRQAPGKGLEWVATISGGGRDIYYPDSVKGRFTISRDNSKNTLYLQMNSLRAEDTAVYYCVLLTGRVYFALDSWGQGTLVTVSSASVAAPSVFIFPPSDEQLKSGTASVVCLLNNFYPREAKVQWKVDNALQSGNSQESVTEQDSKDSTYSLSSTLTLSKADYEKHKVYACEVTHQGLSSPVTKSFNRGEC
light 2: not shown
notes: 1+1 CrossMAb Vh-VL, knobs into holes, IgG1 PGLALA
As for B1, in assay [1], the 50% effective concentration (EC50 (read off the curve)) was about 0.02 µg/mL. Besides, the EC50 in assay [2] is 0.18 nM; in assay [4], 0.23 nM. In addition, in assay [3], the “EC50 [pM], dimerization binding assay (chemoluminescence)” value was 41 pM. The molecule also returned an IC50 with biotinylated-Lag3 of 1.11 nM.

B2: PD1/LAG3 0799 (bispecific antibody, human IgG1, kappa, L234A L235A)
heavy 1: not shown
heavy 2: EVQLVESGGGLVQPGGSLRLACAASGFTFSDYAMSWVRQAPGKGLEWVSGIDNSGYYTYYTDSVKGRFTISRDDVKNTLYLQMNSLRAEDTAVYLCTKTHSGLIVNDAFDIWGQGTMVTVSSASTKGPSVFPLAPSSKSTSGGTAALGCLVEDYFPEPVTVSWNSGALTSGVHTFPAVLQSSGLYSLSSVVTVPSSSLGTQTYICNVNHKPSNTKVDEKVEPKSCDKTHTCPPCPAPEAAGGPSVFLFPPKPKDTLMISRTPEVTCVVVDVSHEDPEVKFNWYVDGVEVHNAKTKPREEQYNSTYRVVSVLTVLHQDWLNGKEYKCKVSNKALGAPIEKTISKAKGQPREPQVCTLPPSRDELTKNQVSLSCAVKGFYPSDIAVEWESNGQPENNYKTTPPVLDSDGSFFLVSKLTVDKSRWQQGNVFSCSVMHEALHNHYTQKSLSLSPGK
light 1: EVQLLESGGGLVQPGGSLRLSCAASGFSFSSYTMSWVRQAPGKGLEWVATISGGGRDIYYPDSVKGRFTISRDNSKNTLYLQMNSLRAEDTAVYYCVLLTGRVYFALDSWGQGTLVTVSSASVAAPSVFIFPPSDEQLKSGTASVVCLLNNFYPREAKVQWKVDNALQSGNSQESVTEQDSKDSTYSLSSTLTLSKADYEKHKVYACEVTHQGLSSPVTKSFNRGEC
light 2: not shown
notes: as for B1
As to B2, in assay [1], the concentration giving a half-maximal response (EC50 (read off the curve)) was about 0.02 µg/mL. The results for the EC50 in assay [2] and in assay [4] were 0.07 nM and 0.2 nM, respectively. In addition, the “EC50 [pM], dimerization binding assay (chemoluminescence)” value in assay [3] came to 76 pM. The half-inhibitory concentration (IC50) with biotinylated-Lag3 was 0.72 nM.
